Assay results reported in patent US7025971.

Assays:
[1] = biological target: PapD (wild type) (E. coli) (UniProt P15319); assay: cell-based or functional assay
[2] = biological target: PapD (wild type) (E. coli) (UniProt P15319); assay: soluble inhibition ELISA: 25-fold molar excess of peptide, 100 pmol/well PapD, G1′-19′WT-coated wells

Sequence of PapD (wild type) (E. coli) (P15319 22-239 limits assumed): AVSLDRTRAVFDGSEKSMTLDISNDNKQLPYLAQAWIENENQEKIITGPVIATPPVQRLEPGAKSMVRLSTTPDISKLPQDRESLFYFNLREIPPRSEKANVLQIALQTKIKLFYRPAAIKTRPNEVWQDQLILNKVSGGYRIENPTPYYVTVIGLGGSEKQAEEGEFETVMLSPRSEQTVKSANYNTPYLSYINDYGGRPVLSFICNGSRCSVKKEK

Substance: MBP/G1′-81′ (from UniProt P0AEX9 27-392)
- HA titer [1]: 82
- Piliation percentage [1]: 40%

Substance: MBP/G1′-140′ (from UniProt P0AEX9 27-392)
- HA titer [1]: 4
- Piliation percentage [1]: 10%
- decrease of HA titer [1]: 30 fold

Substance: G2′-21′amide (peptide)
- % Inhibition [2]: 0%
